The text below walks through data of patent US8426686B2, “Polyunsaturated fatty acid production in heterologous organisms using PUFA polyketide synthase systems” (DSM IP Assets B.V., priority 2006, dated 2013).

For one test, the system named is acyl-CoA synthetases. The experiment in a line: In vitro activity assay of Schizochytrium FAS-KO cell free homogenate with Triacsin C (HIP extraction, normal phase TLC, phosphorimage). The class given is biochemical. Particulars: FAS-KO sample; Triacsin C 0, 25, 100 or 200 uM for 10 minutes, then ATP and Mg+2, additional 20 minutes; effect at higher concentrations. As for the experimental part: An example of a protocol for in vitro activity assays of both FAS and PUFA synthase activities is as follows. In a final volume of 100 uL, mix the enzyme preparation and Buffer A (volume of these 2 components=90 uL) plus the following components added as a cocktail (in 10 uL) to yield the final concentrations indicated in parenthesis: malonyl-CoA (50 uM—a mixture of cold and malonyl-2-^14C-CoA such that the final concentration of radiolabel is 0.65 μCi/mL), NADH (1 mM), NADPH (1 mM) and acetyl-CoA (10 uM). These components and additional components can be adjusted depending on the requirements of the particular experiments. The assay reactions are carried out in glass tubes in a room temperature (˜21° C.) water bath. The time of incubation is dependant on the experimental requirements. The reactions are stopped by one of two methods depending on the work-up protocol. For conversion of fatty acids to fatty acid methyl-esters (FAMEs) using an acidic method, the reaction is stopped by adding the FAME reagent (see below). For extraction of lipids without derivatization, the reaction is stopped by addition of 125 uL of isopropanol:acetic acid (4:1 v/v) (see below). […]

For another test, the system named is Schizochytrium. The experiment in a line: DAGAT gene knock out in Schizochytrium strain B73-8, lipid profile. Format: cell-based. The settings on record: inactivation of the DAGAT gene in Schizochytrium B73-8. The text has this:
Using the knock out technology described above in Example 1 for FAS in Schizochytrium, the inventors similarly knocked out the DAGAT gene (comprising SEQ ID NO:100) in a Schizochytrium strain, denoted B73-8. […] Accordingly, the inventors concluded that this DAGAT is the primary enzyme responsible for TAG synthesis in Schizochytrium.

The next test concerns yeast. The experiment in a line: FAME analysis of yeast expressing Schizochytrium PUFA synthase and Het I with co-expressed acyl-CoA synthetase. Format: cell-based, Saccharomyces cerevisiae. Particulars: data not shown. The text has this:
More specifically, the yeast expression system described in the Examples above was modified to accommodate introduction of the fifth ACoAS gene (i.e., the yeast also contained OrfsA, B and C of the Schizochytrium PUFA synthase system and a PPTase (Het I from Nostoc)) using 4 vectors. Yeast expression vectors in which two genes can be cloned (the pESC vectors) were obtained from Stratagene. These vectors are similar to and compatible with the pYES vectors described above. […] This provides confirmation that the accumulation of the products of the PUFA synthase in heterologous host can be increased by co-expression of enzymes that may be more efficient at utilization of those products.
In subsequent experiments, ScACS-3, ScACS-5, ScACS-6 and ScACS-8 were also tested in yeast that contained the genes encoding the Schizochytrium PUFA synthase system (e.g., sOrfA, sOrfB and nOrfC, and HetI), using similar methods as described above.

On to `CCC/C=C/C/C=C/C=C/C=N/NN=O` [Triacsin C], for which the “radiolabel in the FFA band (loss after addition of ATP and Mg+2)” value in the test with acyl-CoA synthetases is reported as “blocked the loss of radiolabel from the FFA band”.

B1: DAGAT: Schizochytrium diacylglycerol acyltransferase, SEQ ID NO:100/101; gene knocked out in strain B73-8 (protein, listed as Schizochytrium sp.)
chain: MERPQAQASPARSEARRRRGDRSKGFADEDGETSVNTPNGMQTPYSTSMGSVSSYSSSGDYAMSEAEGSEVDPADDRMGDSIGSKPSSSSVTGRRRLTQEERDYFLRLEKEWREEDAWADQPGSWYSMLAWMPVLIGLRVFNVLLSIAFWPVSFVARVFFGKKIHTVSFWDVPLSRRKQTAVVLLFVMLLPMVVVVYSWTLVLLLFPLTTFPTLCYMVWIIYVDKSPETGSRRPFLRYWKMWRHFANYFPLRLIRTTPLDSRRKYVFCYHPHGIISLGAFGNFATDSTGFSRKFPGIDLRVLTLALNFYCPLLREFLLYLGLCSAAKKSCNQILQRGPGSAIMLVVGGAAESLDSQPGTYRLTLGRKGFVRVALDNGADLVPVLAFGENDVFDTVYLPPNSWARNVQEFVRKKLGFATPIFSGRGIFQYNMGLMPHRRPIIVVVGKPIKMPKIPDELKGRALSTTAEGVALVDKYHEKYVKALRELWNLYKERWAVHRQGSLLIQK
Consider B1, for which, in the test on Schizochytrium, the “reduction in TAG” value is roughly 90% and the “reduction in mg FAME/gm biomass” value is roughly 80%.

B2: ScACS-8: Schizochytrium acyl-CoA synthetase, SEQ ID NO:96/97 (protein, listed as Schizochytrium sp.)
chain: MDAEKVIKAGAAAGAAYLGWKYLDEKHGISHDLELARRLLKLKKEINERNTKRVFNVTNMWYEAYAKNPKKPALLYLDEVVTYQDMEDRSNQVANWLLSKGLKRGDTVALLMENRPEFVISWLGMTKIGVKVALINTSIKQKPLLHCLKISGCKIVLFGSELAEPILDIKDELADLGIELAAEGAREASPDWIEVVNPEIEASPKTATSPKLREGIGMQDVFGFIYTSGTTGLPKAAVILHQKMFSFGALMTNAFQCTQDDIVYTCLPLFHSAGGGLGIGIMLYTGATVVIKRKFSVTDFWSDCVKYKCTVVQYIGELCRYLVMAESRPEETQHKVRLAIGNGLRPEIWAEFQERFQIPQIGEFYGATEGNGALVQHCTKPEDRGAVGRMGSLLMRVTGVKFARFDVLEEAPVRGADGFCIECDVDEPGELLFPIRDNDPSSAFAGYNDPKATAKKIITDAFTKGDKYFRTGDLLSRDARGRIYFRDRIGDTFRCKGENVSTSEVAEVLSTYPGIEELNIYGVQIPNNEDGRFPCAALTPKDSDLSNVDLKGFYEHAKKNLPSYSIPMFIRVQPVMPVTATMKHQKVQLRKEGMDIHVIKDPMYWLHDVKKEYDPLTEEDYARIIGQRARL
Take B2: in the test on yeast, the “DHA production in yeast as compared to in the absence of the added acyl-CoA synthetase gene” value was “increased DHA production”.

B3: ScACS-5: Schizochytrium acyl-CoA synthetase, SEQ ID NO:90/91 (protein, listed as Schizochytrium sp.)
chain: MLEMREEVVKHEGEAAHFKGVKMKVFPNGFQTMVDIFKVPFEKQVMKNDLLVDETGRMTFQEVFDTAAALGDALVNEYGVEKGDRVVALSKNRNEYIVTMIAATSVGAIFAPLNSYWKTEQLSYGLDDSGAKVVVCDADRYVQLEPLLDGRASALERVLLLRGPGTEKFRPNAKTTAFDEVISKHAGARMPPFPCQKDDPAMIMYTSGTTGNPKGVVLTHRSIGEAMTGAVAAMTYEKTLAATRAGETLPEPEDPSLSAFLLAVPLFHVTGHHCVGLLSIISCRKIVLMSKWDPKLALELIESERITNFTGVPTMALDLMTHPDFKKRDTSTLKSLGGGGAAPPSTMVNDIDKNFKQASPLQAWGMTETNGIATLTEGDMYRRKPESCGKAIPNVEIAIWNARDEPVPAGAEGELVIRGSTCLKEYWNKPEATAKSITAEGWFRTGDIGVIDEEGFLQLKGRSKEIIIRGGENISCVVVENAVYNHDDINEVAAIPVPHPTLGEEVGIAVFSQSGARPSLQSIRDVCGNLARYEMPTHIYYWPEQLPRGDTGKIHKRTILADIKAGKVKDEAVPASKL
B3: the “DHA production in yeast as compared to in the absence of the added acyl-CoA synthetase gene” value in the test with yeast is recorded as “increased DHA production”.

B4: ScACS-3: Schizochytrium acyl-CoA synthetase, SEQ ID NO:86/87 (protein, listed as Schizochytrium sp.)
chain: MGCSGSKPAAPGEVPAVQGYEVTEEVAPGPYDPEKGPYYVSNKAERREIIFAAKGVASEATTPAMTLSKMFRKAAEASKDEVALAVEWPVPEIGADGKIPDSLPLDKWRTWTFGQYYADSHAMARAIVALGAERFDGVTIFGFNSPFWLMAQMAATLSTTLPAGIYPTDTAEQVRYKLRYTDTAVAFCGVEKEFTMLRAAVEDAPDLKAIVCWAHLPMVKTITREDGSKVKVMSWQEALALGEITPPAEVDARIEAQNPGDCAELVFTSGTTGLPKAVMLSHDNLCFAITSIVSTLEDFGRSGPESHLSYLPLSHIAGQEMDVLLPLVVTAFRESHHAVYFVRPYDLKTGTLIDRVKTVQPTAFLGVPRVYEKIMAKMRAKGASVKGLKKKIVQYSKKKGLEYQRNLEVGGSGGKPSNYGFAEKKVLSKVKEALGFTRLKFAISGAAPMSREVQEYFAGIGIAILDVYGASESTGGVTGNSIKAHQFGTVGHTLPGMDVRVFQKAEGGDSSAETGLGELREPARAKDIFHPSEEEQGEVCFRGRSVMLGYMANPKLGEEHVAEVERKNASAIDRHGWYHSGDKGACSKKNMFVITGRYKEIIIGAGGENIAPLPMEDAVKSLAPGVANAIMIGDKRKFNIMLITLRAEGATGEFPGSDNLDPDVRSIGSDSTRTIQKAMADSKWIEHVRDAISKTNANGDACQSNAWKIGRFTILPYDISIVGGELTPTLKLKRNFVDEKYKAVIDHVYAHEGDSKDLTYVPCPIDRVPRKISGDESAAGAASPEANVAEPVTAESGSPSEVTTEAKPANETDDAESKDAAAPLAAKVDTTVPDVAQPQAAS
With B4, the “DHA production in yeast as compared to in the absence of the added acyl-CoA synthetase gene” value in the test with yeast is reported as “increased DHA production”.
